# From doi:10.1101/2023.03.09.531510
# What was measured:
# Test in all cases: protein-fragment complementation
# [1] = target: Lsb3 (UniProt P43603)
# [2] = target: Syp1 (UniProt P25623)
# [3] = target: Osh2 (UniProt Q12451)
# [4] = target: Bbc1 (UniProt P47068)
# [5] = target: Las17 (UniProt Q12446)
# [6] = target: Arc18 (UniProt Q05933)
# [7] = target: Sla2 (UniProt P33338)
# [8] = target: Ssb2 (UniProt P40150)
# [9] = target: Arc40 (UniProt P38328)
# [10] = target: Sla1 (UniProt P32790)
# [11] = target: Ste20 (UniProt Q03497)
# [12] = target: Rvs167 (UniProt P39743)
# [13] = target: Ssb1 (UniProt P11484)
# [14] = target: Arc15 (UniProt P40518)
# Chain of UniProt P40518 (P40518 whole entry): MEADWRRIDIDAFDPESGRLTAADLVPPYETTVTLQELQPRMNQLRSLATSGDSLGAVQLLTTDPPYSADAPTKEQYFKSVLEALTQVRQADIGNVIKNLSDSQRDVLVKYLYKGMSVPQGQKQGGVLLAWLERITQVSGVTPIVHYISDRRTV
# [15] = target: Aim21 (UniProt P40563)
# [16] = target: Ssz1 (UniProt P38788)
# [17] = target: Hek2 (UniProt P38199)
# [18] = target: Myo5 (UniProt Q04439)
# [19] = target: Nap1 (UniProt P25293)
# [20] = target: Srv2 (UniProt P17555)
# [21] = target: Vrp1 (UniProt P37370)
# [22] = target: Ysc84 (UniProt P32793)
# [23] = target: Sbp1 (UniProt P10080)
# Chain of UniProt P10080 (P10080 whole entry): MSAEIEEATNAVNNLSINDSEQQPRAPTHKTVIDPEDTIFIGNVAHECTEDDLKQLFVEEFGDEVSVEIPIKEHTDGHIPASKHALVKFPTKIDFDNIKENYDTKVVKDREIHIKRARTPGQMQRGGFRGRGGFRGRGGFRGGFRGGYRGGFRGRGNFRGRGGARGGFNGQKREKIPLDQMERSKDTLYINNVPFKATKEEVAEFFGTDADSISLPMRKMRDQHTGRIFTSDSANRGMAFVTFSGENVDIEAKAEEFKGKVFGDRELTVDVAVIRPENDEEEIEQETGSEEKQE
# [24] = target: Arc19 (UniProt P33204)
# [25] = target: Cdc10 (UniProt P25342)
# [26] = target: Chc1 (UniProt P22137)
# [27] = target: Pkh2
# [28] = target: Yor1 (UniProt P53049)
# [29] = target: Bmh1 (UniProt P29311)
# [30] = target: Cdc3 (UniProt P32457)
# [31] = target: Mid2 (UniProt P36027)
# [32] = target: Bzz1 (UniProt P38822)
# [33] = target: Tif4631 (UniProt P39935)
# [34] = target: Pab1 (UniProt P04147)
# Chain of UniProt P04147 (P04147 whole entry): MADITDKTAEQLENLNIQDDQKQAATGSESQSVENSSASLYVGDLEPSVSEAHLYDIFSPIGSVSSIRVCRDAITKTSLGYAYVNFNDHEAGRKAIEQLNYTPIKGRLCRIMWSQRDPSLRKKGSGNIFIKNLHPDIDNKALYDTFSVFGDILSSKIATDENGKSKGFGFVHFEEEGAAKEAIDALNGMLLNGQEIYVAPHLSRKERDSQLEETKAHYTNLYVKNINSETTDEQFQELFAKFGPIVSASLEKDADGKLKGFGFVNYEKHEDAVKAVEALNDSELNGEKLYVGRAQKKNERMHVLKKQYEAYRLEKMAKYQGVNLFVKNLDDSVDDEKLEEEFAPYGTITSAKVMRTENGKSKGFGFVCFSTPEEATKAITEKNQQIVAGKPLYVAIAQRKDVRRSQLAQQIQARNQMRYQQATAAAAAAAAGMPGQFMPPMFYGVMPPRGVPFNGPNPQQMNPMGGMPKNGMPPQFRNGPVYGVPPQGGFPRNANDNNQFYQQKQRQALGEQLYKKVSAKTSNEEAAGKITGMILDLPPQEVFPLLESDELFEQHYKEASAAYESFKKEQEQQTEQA
# [35] = target: Ygl242c (UniProt P53066)
# Chain of UniProt P53066 (P53066 whole entry): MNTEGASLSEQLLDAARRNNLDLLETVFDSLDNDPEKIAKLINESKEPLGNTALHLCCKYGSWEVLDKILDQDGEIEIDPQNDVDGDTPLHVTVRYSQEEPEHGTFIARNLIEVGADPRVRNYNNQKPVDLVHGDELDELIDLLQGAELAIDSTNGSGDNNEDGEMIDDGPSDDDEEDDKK
# [36] = target: Cmd1 (UniProt P06787)
# Chain of UniProt P06787 (P06787 whole entry): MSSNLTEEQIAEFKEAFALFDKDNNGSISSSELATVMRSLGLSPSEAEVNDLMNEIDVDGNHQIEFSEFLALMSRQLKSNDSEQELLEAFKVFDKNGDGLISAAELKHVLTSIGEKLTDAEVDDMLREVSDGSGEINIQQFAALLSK
# [37] = target: Ssa1 (UniProt P10591)
# [38] = target: Smi1 (UniProt P32566)
# Chain of UniProt P32566 (P32566 whole entry): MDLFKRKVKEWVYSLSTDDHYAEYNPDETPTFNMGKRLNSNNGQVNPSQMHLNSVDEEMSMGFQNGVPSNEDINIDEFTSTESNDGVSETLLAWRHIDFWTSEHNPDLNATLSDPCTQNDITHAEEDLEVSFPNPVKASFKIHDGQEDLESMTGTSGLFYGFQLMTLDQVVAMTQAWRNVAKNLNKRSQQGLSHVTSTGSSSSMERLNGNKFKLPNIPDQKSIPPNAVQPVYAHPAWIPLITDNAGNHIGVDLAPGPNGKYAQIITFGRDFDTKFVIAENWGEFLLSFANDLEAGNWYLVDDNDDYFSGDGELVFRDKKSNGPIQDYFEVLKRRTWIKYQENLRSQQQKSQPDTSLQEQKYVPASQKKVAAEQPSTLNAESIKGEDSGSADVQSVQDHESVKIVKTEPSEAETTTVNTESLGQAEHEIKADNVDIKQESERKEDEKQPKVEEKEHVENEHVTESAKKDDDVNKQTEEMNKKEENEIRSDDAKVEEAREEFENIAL
# [39] = target: Pan1 (UniProt P32521)
# [40] = target: Sac6 (UniProt P32599)
# [41] = target: Hsp104 (UniProt P31539)
# [42] = target: Abp1 (UniProt P15891)
# [43] = target: Tdh3 (UniProt P00359)
# [44] = target: Sfk1 (UniProt P35735)
# [45] = target: Pfk1 (UniProt P16861)
# Chain of UniProt P47068 (P47068 whole entry): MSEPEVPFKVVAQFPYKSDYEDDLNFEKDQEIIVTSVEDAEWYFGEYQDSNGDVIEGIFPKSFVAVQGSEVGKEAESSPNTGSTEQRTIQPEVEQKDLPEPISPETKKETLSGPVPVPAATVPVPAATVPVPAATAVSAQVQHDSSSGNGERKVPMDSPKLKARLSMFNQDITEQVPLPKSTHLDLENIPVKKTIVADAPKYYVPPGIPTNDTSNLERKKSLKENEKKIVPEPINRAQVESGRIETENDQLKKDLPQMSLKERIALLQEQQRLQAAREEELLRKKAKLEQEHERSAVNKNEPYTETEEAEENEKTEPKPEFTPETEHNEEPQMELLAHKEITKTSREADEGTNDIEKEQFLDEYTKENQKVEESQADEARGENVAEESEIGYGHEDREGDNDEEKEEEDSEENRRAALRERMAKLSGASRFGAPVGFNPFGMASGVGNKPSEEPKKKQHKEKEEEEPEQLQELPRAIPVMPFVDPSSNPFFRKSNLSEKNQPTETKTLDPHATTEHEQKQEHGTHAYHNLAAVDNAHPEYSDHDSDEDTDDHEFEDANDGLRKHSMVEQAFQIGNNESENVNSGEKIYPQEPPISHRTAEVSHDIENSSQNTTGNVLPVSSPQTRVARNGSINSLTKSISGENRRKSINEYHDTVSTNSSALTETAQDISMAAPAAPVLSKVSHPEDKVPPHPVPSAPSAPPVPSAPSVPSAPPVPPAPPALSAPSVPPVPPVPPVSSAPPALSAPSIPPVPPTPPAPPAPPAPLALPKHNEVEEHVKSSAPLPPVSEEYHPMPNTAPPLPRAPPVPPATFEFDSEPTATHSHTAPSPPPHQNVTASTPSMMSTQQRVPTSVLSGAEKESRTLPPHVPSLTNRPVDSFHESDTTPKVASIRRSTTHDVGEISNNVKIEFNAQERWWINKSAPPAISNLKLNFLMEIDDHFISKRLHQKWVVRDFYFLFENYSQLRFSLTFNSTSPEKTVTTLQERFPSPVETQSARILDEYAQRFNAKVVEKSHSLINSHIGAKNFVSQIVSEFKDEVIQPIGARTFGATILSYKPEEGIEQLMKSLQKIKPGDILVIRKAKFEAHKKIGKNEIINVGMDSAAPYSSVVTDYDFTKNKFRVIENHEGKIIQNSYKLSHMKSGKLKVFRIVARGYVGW
# Chain of UniProt Q12446 (Q12446 whole entry): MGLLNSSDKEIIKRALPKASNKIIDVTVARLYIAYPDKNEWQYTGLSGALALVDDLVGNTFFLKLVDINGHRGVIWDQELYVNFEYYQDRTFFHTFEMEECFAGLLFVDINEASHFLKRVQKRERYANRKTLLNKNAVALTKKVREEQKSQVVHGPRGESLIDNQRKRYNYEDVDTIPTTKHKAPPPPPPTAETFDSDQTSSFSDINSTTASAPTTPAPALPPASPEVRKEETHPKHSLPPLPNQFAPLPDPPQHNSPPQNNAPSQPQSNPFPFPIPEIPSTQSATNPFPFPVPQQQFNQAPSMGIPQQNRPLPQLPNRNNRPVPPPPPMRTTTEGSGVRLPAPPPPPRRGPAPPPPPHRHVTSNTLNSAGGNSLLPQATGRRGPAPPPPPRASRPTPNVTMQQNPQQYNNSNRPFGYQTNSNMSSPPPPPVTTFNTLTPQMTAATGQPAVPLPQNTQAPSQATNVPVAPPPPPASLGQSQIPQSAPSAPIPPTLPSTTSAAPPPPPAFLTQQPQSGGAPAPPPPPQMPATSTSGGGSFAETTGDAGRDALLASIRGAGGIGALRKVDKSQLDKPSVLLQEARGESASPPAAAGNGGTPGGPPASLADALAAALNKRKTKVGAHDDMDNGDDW
# Chain of UniProt P25623 (P25623 whole entry): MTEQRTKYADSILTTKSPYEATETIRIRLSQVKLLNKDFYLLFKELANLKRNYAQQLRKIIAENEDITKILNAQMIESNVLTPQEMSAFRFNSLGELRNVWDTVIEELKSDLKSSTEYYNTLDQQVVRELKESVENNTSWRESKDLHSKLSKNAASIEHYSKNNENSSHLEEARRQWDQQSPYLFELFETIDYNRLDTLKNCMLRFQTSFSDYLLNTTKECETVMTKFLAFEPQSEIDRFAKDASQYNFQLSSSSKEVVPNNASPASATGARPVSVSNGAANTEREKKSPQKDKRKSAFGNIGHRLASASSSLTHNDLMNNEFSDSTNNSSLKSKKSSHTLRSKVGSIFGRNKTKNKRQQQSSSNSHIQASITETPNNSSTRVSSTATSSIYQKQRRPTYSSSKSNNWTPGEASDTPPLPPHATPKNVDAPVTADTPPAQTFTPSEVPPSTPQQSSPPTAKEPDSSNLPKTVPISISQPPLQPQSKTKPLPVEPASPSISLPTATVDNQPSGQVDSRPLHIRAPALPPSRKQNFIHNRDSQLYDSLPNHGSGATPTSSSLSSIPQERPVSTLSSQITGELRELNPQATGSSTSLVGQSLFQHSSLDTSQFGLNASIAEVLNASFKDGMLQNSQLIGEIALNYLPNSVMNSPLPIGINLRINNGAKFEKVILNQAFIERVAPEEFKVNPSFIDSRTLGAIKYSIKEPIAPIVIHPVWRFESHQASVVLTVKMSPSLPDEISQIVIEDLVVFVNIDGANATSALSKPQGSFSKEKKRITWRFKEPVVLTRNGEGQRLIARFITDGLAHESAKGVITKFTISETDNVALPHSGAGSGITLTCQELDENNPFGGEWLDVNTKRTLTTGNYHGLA
# Chain of UniProt P43603 (P43603 whole entry): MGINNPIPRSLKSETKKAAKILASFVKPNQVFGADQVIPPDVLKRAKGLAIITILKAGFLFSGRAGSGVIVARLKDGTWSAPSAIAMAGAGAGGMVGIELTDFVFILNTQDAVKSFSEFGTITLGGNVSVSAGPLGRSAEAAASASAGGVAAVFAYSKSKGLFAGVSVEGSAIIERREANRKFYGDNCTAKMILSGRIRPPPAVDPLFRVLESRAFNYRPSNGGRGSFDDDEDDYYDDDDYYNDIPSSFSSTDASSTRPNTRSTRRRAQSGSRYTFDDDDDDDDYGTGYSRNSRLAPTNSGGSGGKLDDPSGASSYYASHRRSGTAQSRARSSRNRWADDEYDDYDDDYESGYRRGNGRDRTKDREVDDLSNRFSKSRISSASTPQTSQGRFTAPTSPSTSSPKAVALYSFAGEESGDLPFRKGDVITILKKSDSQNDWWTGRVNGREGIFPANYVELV
substance,measurement,setting,value
Myo5 with SH3 AncA (from UniProt Q04439),interaction score,[1],0.616
same,interaction score,[2],0.526
same,interaction score,[3],0.738
same,interaction score,[4],0.722
same,interaction score,[5],0.862
same,interaction score,[6],0.844
same,interaction score,[7],0.633
same,interaction score,[8],0.915
same,interaction score,[9],0.937
same,interaction score,[10],0.527
same,interaction score,[11],0.447
same,interaction score,[12],0.525
same,interaction score,[13],0.918
same,interaction score,[14],0.865
same,interaction score,[15],0.744
same,interaction score,[16],0.807
same,interaction score,[17],0.391
same,interaction score,[18],0.889
same,interaction score,[19],0.489
same,interaction score,[20],0.62
same,interaction score,[21],0.892
same,interaction score,[22],0.458
same,interaction score,[23],0.792
same,interaction score,[24],0.754
same,interaction score,[25],0.39
same,interaction score,[26],0.583
same,interaction score,[27],0.128
same,interaction score,[28],0.473
same,interaction score,[29],0.791
same,interaction score,[30],0.481
same,interaction score,[31],0.848
same,interaction score,[32],0.801
same,interaction score,[33],0.664
same,interaction score,[34],0.783
same,interaction score,[35],0.917
same,interaction score,[36],0.216
same,interaction score,[37],0.885
same,interaction score,[38],0.53
same,interaction score,[39],0.908
same,interaction score,[40],0.801
same,interaction score,[41],0.755
same,interaction score,[42],0.89
same,interaction score,[43],0.947
same,interaction score,[44],0.711
Myo5 with SH3 AncA_3 (from UniProt Q04439),interaction score,[1],0.595
same,interaction score,[2],0.513
same,interaction score,[3],0.703
same,interaction score,[4],0.698
same,interaction score,[5],0.823
same,interaction score,[6],0.812
same,interaction score,[7],0.59
same,interaction score,[8],0.881
same,interaction score,[9],0.902
same,interaction score,[10],0.51
same,interaction score,[11],0.424
same,interaction score,[12],0.501
same,interaction score,[13],0.889
same,interaction score,[14],0.837
same,interaction score,[15],0.715
same,interaction score,[16],0.776
same,interaction score,[17],0.366
same,interaction score,[18],0.869
same,interaction score,[19],0.444
same,interaction score,[20],0.591
same,interaction score,[21],0.862
same,interaction score,[22],0.455
same,interaction score,[23],0.772
same,interaction score,[24],0.724
same,interaction score,[25],0.404
same,interaction score,[26],0.553
same,interaction score,[27],0.142
same,interaction score,[28],0.467
same,interaction score,[29],0.762
same,interaction score,[30],0.466
same,interaction score,[31],0.821
same,interaction score,[32],0.767
same,interaction score,[33],0.621
same,interaction score,[34],0.756
same,interaction score,[35],0.881
same,interaction score,[36],0.405
same,interaction score,[37],0.849
same,interaction score,[45],0.807
same,interaction score,[38],0.514
same,interaction score,[39],0.876
same,interaction score,[40],0.775
same,interaction score,[41],0.724
same,interaction score,[42],0.865
same,interaction score,[44],0.691
Myo5 with SH3 AncC (from UniProt Q04439),interaction score,[1],0.584
same,interaction score,[2],0.48
same,interaction score,[3],0.654
same,interaction score,[4],0.712
same,interaction score,[5],0.843
same,interaction score,[6],0.85
same,interaction score,[7],0.575
same,interaction score,[8],0.92
same,interaction score,[9],0.946
same,interaction score,[10],0.489
same,interaction score,[11],0.33
same,interaction score,[12],0.404
same,interaction score,[13],0.93
same,interaction score,[14],0.874
same,interaction score,[15],0.727
same,interaction score,[16],0.81
same,interaction score,[17],0.421
same,interaction score,[18],0.885
same,interaction score,[19],0.469
same,interaction score,[20],0.579
same,interaction score,[21],0.89
same,interaction score,[22],0.431
same,interaction score,[23],0.816
same,interaction score,[24],0.72
same,interaction score,[25],0.334
same,interaction score,[26],0.578
same,interaction score,[27],0.0849
same,interaction score,[28],0.395
same,interaction score,[29],0.806
same,interaction score,[30],0.438
same,interaction score,[31],0.846
same,interaction score,[32],0.782
same,interaction score,[33],0.659
same,interaction score,[34],0.783
same,interaction score,[35],0.919
same,interaction score,[36],0.412
same,interaction score,[37],0.883
same,interaction score,[38],0.555
same,interaction score,[39],0.896
same,interaction score,[40],0.807
same,interaction score,[41],0.76
same,interaction score,[42],0.887
same,interaction score,[43],0.949
same,interaction score,[44],0.685
Myo5 with SH3 optMyo5 (from UniProt Q04439),interaction score,[1],0.639
same,interaction score,[2],0.572
same,interaction score,[3],0.768
same,interaction score,[4],0.758
same,interaction score,[5],0.875
same,interaction score,[7],0.65
same,interaction score,[8],0.932
same,interaction score,[9],0.968
same,interaction score,[10],0.551
same,interaction score,[11],0.446
same,interaction score,[12],0.539
same,interaction score,[13],0.944
same,interaction score,[14],0.902
same,interaction score,[15],0.758
same,interaction score,[16],0.841
same,interaction score,[17],0.412
same,interaction score,[18],0.915
same,interaction score,[19],0.509
same,interaction score,[20],0.658
same,interaction score,[21],0.916
same,interaction score,[22],0.514
same,interaction score,[23],0.834
same,interaction score,[24],0.769
same,interaction score,[25],0.423
same,interaction score,[26],0.603
same,interaction score,[27],0.124
same,interaction score,[28],0.521
same,interaction score,[29],0.831
same,interaction score,[30],0.493
same,interaction score,[31],0.866
same,interaction score,[32],0.814
same,interaction score,[33],0.671
same,interaction score,[34],0.794
same,interaction score,[35],0.948
same,interaction score,[36],0.319
same,interaction score,[37],0.908
same,interaction score,[45],0.877
same,interaction score,[38],0.568
same,interaction score,[39],0.926
same,interaction score,[40],0.838
same,interaction score,[41],0.762
same,interaction score,[42],0.903
same,interaction score,[43],0.97
same,interaction score,[44],0.723
Myo5 with SH3 swapMyo3 (from UniProt Q04439),interaction score,[1],0.628
same,interaction score,[2],0.557
same,interaction score,[3],0.76
same,interaction score,[4],0.755
same,interaction score,[5],0.877
same,interaction score,[6],0.874
same,interaction score,[7],0.632
same,interaction score,[8],0.932
same,interaction score,[9],0.967
same,interaction score,[10],0.535
same,interaction score,[11],0.417
same,interaction score,[12],0.519
same,interaction score,[13],0.934
same,interaction score,[14],0.9
same,interaction score,[15],0.753
same,interaction score,[16],0.838
same,interaction score,[17],0.387
same,interaction score,[18],0.903
same,interaction score,[19],0.479
same,interaction score,[20],0.637
same,interaction score,[21],0.917
same,interaction score,[22],0.459
same,interaction score,[23],0.824
same,interaction score,[24],0.762
same,interaction score,[25],0.33
same,interaction score,[26],0.594
same,interaction score,[27],0.168
same,interaction score,[28],0.492
same,interaction score,[29],0.825
same,interaction score,[30],0.472
same,interaction score,[31],0.858
same,interaction score,[32],0.818
same,interaction score,[33],0.665
same,interaction score,[34],0.795
same,interaction score,[35],0.935
same,interaction score,[36],0.196
same,interaction score,[45],0.862
same,interaction score,[38],0.539
same,interaction score,[39],0.925
same,interaction score,[40],0.824
same,interaction score,[41],0.767
same,interaction score,[42],0.908
same,interaction score,[43],0.972
same,interaction score,[44],0.714
